How the values were obtained:
Assay in all cases: SPR, Biacore T200, by the methods of Example 2
hIL-4Rα-Mu241 = target: T1, hIL-4Rα-Mu241 (human, UniProt P24394 26-232)
T1 construct: Printed positions fit the mature protein; also called D67A/V68R/V69F; not shown: C-terminal his-tag
T1 chain: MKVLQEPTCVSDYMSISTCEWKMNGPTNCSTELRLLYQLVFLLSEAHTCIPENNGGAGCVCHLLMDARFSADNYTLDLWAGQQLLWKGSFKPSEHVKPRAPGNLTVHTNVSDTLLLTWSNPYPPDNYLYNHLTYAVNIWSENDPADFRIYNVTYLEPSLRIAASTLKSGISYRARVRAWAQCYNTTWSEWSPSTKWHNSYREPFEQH
Protocol: (§1) The protein A was chemically coupled to a CM5 chip, and an appropriate amount of the antibody was immobilized by a capture method such that the Rmax was less than 50 RU and the flow rate for the capture was 10 μl/min. The antigen was subject to gradient dilution, and the flow rate in the instrument was switched to 30 μl/min. The antigen was flowed through the reference channel and the channel with the immobilized antibody sequentially in an ascending order of concentration, and the running buffer was flowed through as a negative control. After each binding and dissociation was complete, the chip was regenerated with glycine, pH 1.5. Fitting was performed with the build-in software in the instrument according to a 1:1 binding model. The binding rate constant kₐ, the dissociation rate constant kd, and the equilibrium dissociation constant KD values of the antibody were calculated. Dupilumab was obtained by purchasing a commercially available medicine.
(§2) To further narrow down the key amino acids that PD2-31 binds to, multiple mutants of hIL-4Rα were designed in Loop 2 (V40FLLSEA46) and Loop 3 (M65[…]73) (Table 2). The wild-type hIL-4Rα (hIL-4Rα-ECD) and hIL-4Rα mutants were prepared using standard techniques. Briefly, the expression plasmids containing the extracellular domain of wild-type hIL-4Rα and different mutated hIL-4Rα were constructed and transfected into HEK 293F cells. After expression, the extracellular domain of wild-type hIL-4Rα and hIL-4Rα mutants with C-terminus his-tag were purified by Nickel chromatography. Purified proteins of wild-type hIL-4Rα and hIL-4Rα mutants were analyzed for interaction with PD2-31 and Dupilumab. The interaction was studied by Biacore T200, according to the methods in Example 2.

hIL-4Rα-Mu243 = target: T2, hIL-4Rα-Mu243 (human, UniProt P24394 26-232)
T2 construct: Printed positions fit the mature protein; also called V69F/S70Q/A71L; not shown: C-terminal his-tag
T2 chain: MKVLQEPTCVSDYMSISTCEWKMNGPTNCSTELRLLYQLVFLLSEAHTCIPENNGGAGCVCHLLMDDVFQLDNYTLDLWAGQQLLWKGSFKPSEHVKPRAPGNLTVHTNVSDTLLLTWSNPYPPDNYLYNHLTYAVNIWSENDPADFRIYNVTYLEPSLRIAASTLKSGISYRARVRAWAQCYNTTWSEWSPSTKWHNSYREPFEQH
Protocol: as §1, §2

hIL-4Rα-Mu240 = target: T3, hIL-4Rα-Mu240 (human, UniProt P24394 26-232)
T3 construct: Printed positions fit the mature protein; also called D66A/D67A/V68R; not shown: C-terminal his-tag
T3 chain: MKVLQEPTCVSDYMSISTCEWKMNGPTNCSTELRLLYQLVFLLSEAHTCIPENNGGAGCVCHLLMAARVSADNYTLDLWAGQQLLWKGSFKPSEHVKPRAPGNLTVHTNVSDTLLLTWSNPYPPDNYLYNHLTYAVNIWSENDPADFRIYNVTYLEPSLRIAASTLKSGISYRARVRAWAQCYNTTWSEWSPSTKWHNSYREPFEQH
Protocol: as §1, §2

B1: QX005N (PD2-31) (antibody, V domains shown)
VH: EVQLVESGGGLVQPGGSLRLSCAASGIDLRTNSMSWVRQAPGKGLEWVGIIGSSGYMDYASWAKGRFTISRDNSKNTLYLQMNSLRAEDTAVYYCARHGDSSSFALWGQGTLVTVSS
VL: DIQMTQSPSSLSASVGDRVTITCRASESVYKNNRLSWYQQKPGKAPKLLIYEASKVASGVPSRFSGSGSGTDFTLTISSLQPEDFATYYCAGAYRGNIYPFGQGTKVEIK
notes: Humanized from rabbit clone #2, expressed as a full antibody in ExpiCHO-S cells (heavy chain 48.5 kDa, light chain 23.7 kDa)
- Kd (hIL-4Rα-Mu241): 0.474 nM
- koff (hIL-4Rα-Mu241): 6.59e-05 s⁻¹
- kon (hIL-4Rα-Mu241): 139000 M⁻¹ s⁻¹
- Kd (hIL-4Rα-Mu243): 0.131 nM
- koff (hIL-4Rα-Mu243): 9.45e-05 s⁻¹
- kon (hIL-4Rα-Mu243): 723000 M⁻¹ s⁻¹
- Kd (hIL-4Rα-Mu240): 0.75 nM
- koff (hIL-4Rα-Mu240): 5.23e-05 s⁻¹
- kon (hIL-4Rα-Mu240): 69800 M⁻¹ s⁻¹

Source: US20220073631A1 (QYUNS THERAPEUTICS, published 2022)
